Laboratory results from patent US20240342244A1, “Isthmin Protein Therapeutics for the Treatment of Non-Alcoholic Fatty Liver Disease” (The Board of Trustees of the Leland Stanford Junior …, priority 2021, published 2024).

How the values were obtained:
DIO mice = assay: Therapeutic ISM1, Metformin or combined administration for 21 days in DIO mice; format: in vivo, mouse; conditions: daily for 21 days; compared with vehicle
Method: Therapeutic ISM1 recombinant protein administration in vivo. All pharmacologic studies using recombinant ISM1 protein were performed in mice with established diet-induced obesity or non-alcoholic fatty liver disease (NAFLD). For all experiments, male C57BL/6J mice purchased from Jax were fed either a high-fat diet (#D12492, Research Diets) or a NAFLD diet (#D09100310, Research Diets) prior to ISM1 protein injections. In all experiments, mice were mock injected with saline for three days prior to protein or drug injections to prevent stress-induced weight loss. Mice were I.P. injected with vehicle (saline) or indicated doses of ISM1 protein diluted in saline. For the 14-day experiments in NAFLD mice, 7-weeks old mice were fed with NAFLD diet for 3 weeks and then mock injected with saline for 3 days prior to protein injections. The induction of lipid accumulation with NAFLD diet was verified by the significant increase in hepatic lipid levels compared with mice on chow diet at the same time point. NAFLD mice were then daily I.P. injected with either vehicle (saline containing 5% DMSO and 10% Kolliphor) or indicated doses of ISM1 protein (500 μg/kg or 5 mg/kg) or with FXR agonist (30 mg/kg, GW4064, Sigma-Aldrich, #G5172) diluted in vehicle (saline containing 5% DMSO and 10% Kolliphor). For the 21-day experiments in HFD mice, mice were mock injected with saline for three days prior to protein injections. Mice were then daily I.P. injected with either vehicle (saline) or 5 mg/kg of ISM1 protein diluted in saline. Metformin (100 mg/kg, Sigma, #317240) was diluted in saline and daily administered by oral gavage. All groups received control injections by I.P. and oral gavage. At the end of the experiments, mice and tissue weights were recorded. Tissues and plasma were collected and frozen for further analyses.
Glucose tolerance and insulin tolerance tests. For glucose tolerance tests, mice were fasted overnight and I.P. injected with glucose at 2 g/kg body weight. Blood glucose levels were measured at 0, 15, 30, 45, 60, 90 and 120 mins. For insulin tolerance tests, mice were fasted for 2 h, and I.P. injected with 0.75 U/kg insulin. Blood glucose levels were measured at 0, 15, 30, 45, 60, 90 and 120 mins.

primary mouse adipocytes = assay: 2-deoxy-3H-glucose uptake in primary mouse adipocytes; format: cell-based
Method: Mouse and human pre-adipocytes culture and differentiation. Inguinal fat pads from 4-8 week old C57BL/6J male and female mice were dissected and mechanically digested for 10 min using spring scissors. Digested tissues were incubated in WAT isolation buffer (10 ml PBS, 2.4 U/ml dispase II (#04942078001, Roche), 10 mg/ml collagenase D (#11088858001, Roche) at 37° C. for 45 min. 20 mL growth media was added and the tissue suspension was filtered through a 100-μm cell strainer and centrifuged at 600×g for 5 min. The cell pellets were resuspended in 20 mL growth media, filtered through a 40-μm cell strainer, centrifuged at 600×g for 5 min, resuspended in 10 mL growth media, and plated in 10-cm collagen-coated dishes. The cells were cultured in growth media (DMEM/F-12 Glutamax, Thermo Fisher Scientific #10565018) supplemented with 10% fetal bovine serum. Two days post-confluency, differentiation was induced with growth media containing 1 μM rosiglitazone, 0.5 mM isobutylmethylxanthine, 1 μM dexamethasone, 5 μg/mL insulin. After two days, cells were re-fed with growth media containing 1 μM rosiglitazone and 5 μg/mL insulin. Cells were fully differentiated after 6-8 days. For ISM1 knockdown or overexpression in primary adipocytes using adenovirus, 500 μL crude virus was mixed with 500 μL fresh growth media containing 1 μM rosiglitazone and 5 μg/mL insulin was added to each well at day 2 of differentiation. At day 4, virus-containing media was removed and 500 μL fresh growth media without stimulators was added to each well. SGBS cells were differentiated as described previously (Fischer-Posovszky et al., 2008; Wabitsch et al., 2001). Briefly, cells were cultured in growth media DMEM/F-12 Glutamax, supplemented with 10% fetal bovine serum, 33 uM biotin, and 17 uM pantothenate. Two days post confluency, differentiation was induced with serum-free DMEM/F12 media containing 33 uM biotin, 17 uM pantothenate, 0.01 mg/ml transferrin, 20 nM insulin, 100 nM cortisol, 0.2 nM triiodothyronine, 25 nM dexamethasone, 0.25 mM isobutyl methylxanthine, and 2 μM rosiglitazone. After four days, cells were re-fed with growth media containing 0.01 mg/ml transferrin 20 nM insulin, 100 nM cortisol, 0.2 nM triiodothyronine. Cells were fully differentiated after day 8-10.
Glucose uptake. Glucose uptake was performed as previously described (You et al., 2017). Briefly, 2-Deoxy-d-[2,6-3H]-glucose was purchased from PerkinElmer NEN radiochemicals. Fully differentiated adipocytes were washed with KRH buffer and starved in 0.5% BSA in KRH buffer for 4 h. Indicated concentrations of insulin or ISM1 were added at indicated time points. Cells were treated with a mixture of 500 μM 2-deoxy-D-glucose and 1.71 μCimL^−1 2-Deoxy-D-[1,2-3H (N)]-glucose for another 10 min followed by three washes using ice cold KRH buffer containing 200 mM glucose. The passive glucose uptake in the presence of 50 uM CytoB was less than 12% of the total glucose uptake. Cells were solubilized in 1% SDS and radioactivity was measured by liquid scintillation counting.

GLUT4 = GLUT4 translocation to the plasma membrane in primary adipocytes (immunostaining, fractionation); format: cell-based, mouse; conditions: 100 nM
Method: Biochemical analyses. Plasma insulin levels were measured using the Ultra-Sensitive Mouse Insulin ELISA kit (Crystal Chem Inc #90080). Plasma triglycerides were measured with Infinity triglyceride measurement kit (Thermo #TR22421) and tissue triglycerides were measured with a Triglyceride Colorimetric Assay Kit (Cayman #10010303). Lipolysis was measured in day 5 differentiated adipocytes after 4 hours of protein treatment using a glycerol release assay according to the protocol provided by the manufacturer (Abcam #ab133130). Plasma membrane protein extractions were performed according to the manufacturer's protocol (Abcam #ab65400).
Immunocytochemistry. Primary mouse preadipocytes were seeded onto collagen-coated 22 mm×22 mm coverslips and differentiated using the method above. On day 8, differentiated adipocytes were washed with PBS and starved in 0.5% BSA in KRH buffer (50 mM HEPES, 136 mM NaCl, 1.25 mM MgSO4, 1.25 mM CaCl2, 4.7 mM KCl, pH 7.4) for 3.5 h. Cells were treated with insulin or ISM1 for 30 min, followed by three washes with cold PBS. Cells were fixed with 4% PFA in PBS for 15 min at room temperature. After blocking with 2% BSA, 5% goat serum, 0.2% Triton-X in PBS for 1 hr, cells were incubated with diluted primary antibody at 4° C. overnight. The next day, cells were washed and incubated with secondary antibody on ice for 1 hr. Cells were imaged using confocal microscope (Leica TCS SP8). Hoechst (#33342, thermo fisher) was used as counterstain.

B1: ISM1: recombinant mouse ISM1 protein with a C-terminal myc-his tag generated in mammalian HEK 293 Expi cells (protein, UniProt A2ATD1 30-454, looked up)
Isthmin-1: SDRQDAAAGNNNLNLESDSTSETSFPLSKEAPEEHQVVHQPFPRQRFPPETGHPSLQRDGPRSFLLDLPNFPDLSKADINGQNPNIQVTIEVVDGPDSEAEKDQHPENKPSWSLPAPDWRAWWQRSLSLARTNSGDQDDKYDSTSDDSNFLSVPRGWDRPAPGHRTFETKEQPEYDSTDGEGDWSLWSVCSVTCGNGNQKRTRSCGYACIATESRTCDRPNCPGIEDTFRTAATEVSLLAGSEEFNATKLFEVDMDSCERWMSCKSEFLKKYMHKVINDLPSCPCSYPTEVAYSTADIFDRIKRKDFRWKDASGPKEKLEIYKPTARYCIRSMLSLESTTLAAQHCCYGDNMQLITRGKGAGTPNLISTEFSAELHYKVDVLPWIICKGDWSRYNEARPPNNGQKCTESPSDEDYIKQFQEAREY
modifications: C-terminal myc-His tag
notes: recombinant mouse ISM1 protein with a C-terminal myc-his tag generated in mammalian HEK 293 Expi cells
DIO mice
  fasting blood glucose: lower
  glucose tolerance (GTT): comparable effects on improving glucose tolerance
Primary mouse adipocytes; 100 nM ISM1 in cells treated with 50 nM insulin, 1 h
  glucose uptake when added to insulin: further increased insulin-induced uptake
Primary mouse adipocytes; 100 nM, absence of insulin, across multiple experiments
  increase in glucose uptake: around 1.5 fold
Primary mouse adipocytes; 24 h vs 4 h protein treatment, 100 nM
  desensitization of glucose uptake on prolonged treatment: does not lead to desensitization
Primary mouse adipocytes; primary mouse adipocytes
  effect on glucose uptake relative to that of insulin: < 50%
GLUT4; 4 h
  GLUT4 in plasma membrane fraction (biochemical fractionation): translocation of GLUT4 to the plasma membrane
GLUT4; compared with control cells
  GLUT4 at cell surface (immunostaining, confocal microscopy): higher levels of GLUT4 at cell surface
